The text below walks through data of patent US20230312739A1 (BIOTHEUS, published 2023).

Numbering of substitutions follows the chain as printed.

Test [1] deals with T1, human CD73 on the cell surface (tumor cells endogenously expressing human CD73; CHOS-human CD73) (human, UniProt P21589 27-549).
T1 construct: The endogenous CD73 of the human tumor lines (MDA-MB-231, Calu6, SK-ME-S, H2030, SKLU1, BT549, A375, HCC44) is treated as the same protein
T1 sequence: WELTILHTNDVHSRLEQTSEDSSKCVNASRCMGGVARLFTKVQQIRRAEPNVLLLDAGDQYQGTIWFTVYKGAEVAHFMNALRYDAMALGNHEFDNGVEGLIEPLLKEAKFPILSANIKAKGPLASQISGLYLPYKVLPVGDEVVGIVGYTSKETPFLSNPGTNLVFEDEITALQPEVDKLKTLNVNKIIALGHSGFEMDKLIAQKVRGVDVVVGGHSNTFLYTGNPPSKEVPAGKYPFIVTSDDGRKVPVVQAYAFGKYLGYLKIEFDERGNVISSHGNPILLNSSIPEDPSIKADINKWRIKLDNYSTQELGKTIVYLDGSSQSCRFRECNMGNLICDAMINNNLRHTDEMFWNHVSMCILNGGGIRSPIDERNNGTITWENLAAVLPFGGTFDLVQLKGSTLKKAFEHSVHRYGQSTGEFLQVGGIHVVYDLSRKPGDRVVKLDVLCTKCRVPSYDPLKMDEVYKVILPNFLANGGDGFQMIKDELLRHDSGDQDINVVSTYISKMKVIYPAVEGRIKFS
Nature of the test: full-field cell scanning analyzer (Celigo), percent fluorescent cells, Calu6 cells endogenously expressing human CD73. Here is the method:
(§1) Experimental method: 10,000 cells were plated on a flat-bottom 96-well plate with 100 μL DMEM+10% FBS/well, cultured overnight so that the cells adhered to the well, and the supernatant was discarded on the next day. Serial 3-fold dilutions of antibody for 8 points were performed by diluting ⅓ of the total volume (100 μL) in 200 μL DMEM. 100 μL of the diluted antibody was added to each well of the cell plate (the supernatants of fused clones or subclones were used for screening), 100 μL of DMEM was added to the corresponding negative control well, and incubation was performed at room temperature for 1 hour. After the supernatant was discarded, 100 μL of secondary antibody (DyLight488 goat anti-mouse IgG (Abcam, Cat. No. ab97015)) was added to each well at a concentration of 5 μg/mL (diluted in DMEM), and incubation was performed for 0.5 hours at room temperature. After staining, the supernatant was discarded, followed by washing once with PBS+2% FBS, then 100 μL of PBS+2% FBS was added to each well, and then reading was performed on analyzer. A full-field cell scanning analyzer (Nexcelom Company, model Celigo® Image Cytometer) was used to measure the reading of the experimental plate. […] The binding effect of the anti-CD73 antibody to the CD73-expressing cell line was determined according to the percentage. […]

The target of test [2] is T2, CD73 on cynomolgus macaques CD3+CD8+ T cells (cynomolgus macaques, UniProt A0A2K5V5U7 27-549).
T2 construct: whole, on cells; also called cynomolgus macaques T cells; cynomolgus macaques PBMC
T2 sequence: T1 sequence with M199T, T350A, V466I
Put plainly: flow cytometry on cynomolgus macaque PBMC, CD3+CD8+ T cells, donor 1300M. As for the experimental part:
Monkey blood samples from two donors (1132F and 1300M) were obtained from Medicilon. Peripheral blood mononuclear cells (PBMCs) were isolated using a Ficoll density gradient centrifugation system. The PBMCs were incubated with the antibody to be tested, then the antibodies bound on the cells were stained with fluorochrome-labeled secondary antibodies (DyLight488 goat anti-mouse IgG, Abcam Cat. No. ab97015; DyLight488 goat anti-human IgG, Abcam Cat. No. ab97003), and the fluorochrome-labeled antibodies against CD3+ and CD8+ were used to recognize T cells. Together with the unstained control samples and the fluorescence compensation control samples, all the samples were run on a flow cytometer to detect the binding of the antibodies to cynomolgus macaques T cells.

Test [3] has as its target T1, human CD73 on the cell surface (tumor …). Nature of the test: full-field cell scanning analyzer (Celigo), percent fluorescent cells, MDA-MB-231 cells endogenously expressing human CD73. Here is the method:
as §1

B1: murine antibody 13D12 (antibody, V domains shown)
VH: DVKLQESGPAMVKPSQSLSLTCTVTGYSITSGYDWHWIRLFPGNKLEWMGYISYSGYTDYSPSLKSRISITHDTSKNHFFLKLHSVTTEDTATYYCTRGDHSYAMDYWGQGTSVTVS
VL: DIVMTQSHKFMSTSVGDRVSITCKASQAVGTAVAWYQQKPGQSPKLLIYWASSRHTGVPDRFTGSRSGTDFTLTISSVQSEDLADYFCQQYSSYPLTFGGGTNLEIK
notes: Mouse monoclonal antibody purified from hybridoma supernatant; also called mouse monoclonal antibody 13D12
For orientation: EC50 means the concentration that produces a half-maximal response. The low end stands for a more potent agent, the high end for a less potent agent. Turning to B1, the EC50 in test [1] amounted to 0.47 µg/mL; in test [3] it was 0.9 µg/mL. The “MFI FC (fold change of mean fluorescence intensity)” value in test [2] came out at 2.8 fold.
